From US20100064383A1

Target: bHLH protein EGL3 from Arabidopsis (Arabidopsis) (UniProt Q9CAD0)
Test: cell-based or functional assay

UniProt Q9CAD0, sequence (Q9CAD0 whole entry): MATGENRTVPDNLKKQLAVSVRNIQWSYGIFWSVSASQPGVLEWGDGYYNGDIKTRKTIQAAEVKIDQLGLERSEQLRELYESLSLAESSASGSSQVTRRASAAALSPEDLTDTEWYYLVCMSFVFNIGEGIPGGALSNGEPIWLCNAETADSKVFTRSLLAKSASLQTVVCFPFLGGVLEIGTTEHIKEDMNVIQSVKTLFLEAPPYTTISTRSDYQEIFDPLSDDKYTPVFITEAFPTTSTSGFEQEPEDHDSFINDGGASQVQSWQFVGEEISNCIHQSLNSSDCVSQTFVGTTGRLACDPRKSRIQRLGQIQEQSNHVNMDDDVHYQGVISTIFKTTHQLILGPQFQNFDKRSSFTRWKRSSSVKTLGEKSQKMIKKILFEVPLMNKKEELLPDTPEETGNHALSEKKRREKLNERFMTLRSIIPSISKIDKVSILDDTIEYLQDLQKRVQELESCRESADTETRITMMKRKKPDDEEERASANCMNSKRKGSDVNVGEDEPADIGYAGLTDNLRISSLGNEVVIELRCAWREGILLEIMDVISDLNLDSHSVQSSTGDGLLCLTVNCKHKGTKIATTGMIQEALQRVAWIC

VvMYBPA1
induction of the VvLDOX promoter, dual-luciferase transient assay in grape cells (fold over control without MYB factor): 125 fold
